Reference: CN114805589A

Experiments:
牛IgG (牛 (bovine)) [1] = assay: direct magnetic-particle chemiluminescence, IgG on magnetic particles, HRP-labelled 4C-1 at 1:4000
山羊IgG (山羊 (goat)) [2] = assay: as above
绵羊IgG (绵羊 (sheep)) [3] = assay: as above
牛IgG (牛 (bovine)) [4] = assay: indirect ELISA, IgG coated at 1 ug/mL, HRP goat anti-mouse IgG detection, OD450; conditions: scale: reciprocal dilution
山羊IgG (山羊 (goat)) [5] = assay: as above; conditions: scale: reciprocal dilution
绵羊IgG (绵羊 (sheep)) [6] = assay: as above; conditions: scale: reciprocal dilution

发光值 (luminescence value) (牛IgG (牛 (bovine)) [1]): > 100000 发光值 | 发光值 (luminescence value) (山羊IgG (山羊 (goat)) [2]): > 100000 发光值 | 发光值 (luminescence value) (绵羊IgG (绵羊 (sheep)) [3]): > 100000 发光值 | 效价 (titer) (牛IgG (牛 (bovine)) [4]): > 256000 | 效价 (titer) (山羊IgG (山羊 (goat)) [5]): > 256000 | 效价 (titer) (绵羊IgG (绵羊 (sheep)) [6]): > 256000
B1: 鼠单克隆抗体 二抗4C-1 (antibody, part only; not given: Light chain variable domain, V domains shown, part only)
VH: QVQLKQSGPELVKPGASVKMSCKASGYTFTSYVIHWVKQKPGQGLEWIGYINPYNDNTEYNEKFKGKATLTSDKSSSTAYMELSSLTSEDSAVYYCARREGGYYVFTYWGQGTLVTVSA
